Results from US12064469B2, “Stable peptide compositions” (TearSolutions, Inc., priority 2017, dated 2024).
Entries after “also recorded” stand apart in the source; their conditions may differ.

Assay: Comparative Lacripep stability in PBS vs citrate buffer at 60° C. by MALDI TOF mass spectrometry
Assay type: physicochemical
Conditions: 2 weeks
Procedure: FIGS. 1A and 1B illustrate the stability of Lacripep™ (SEQ ID NO: 1) (0.001%) in phosphate buffered saline (PBS), pH 4.5 and 7.0. The Lacripep™ solutions were analyzed by MALDI TOF mass spectrometry at time 0 (FIG. 1A) and after two weeks (FIG. 1B) at 60° C.
The Lacripep™ solutions were analyzed by MALDI TOF mass spectrometry at time 0 (FIG. 2A) and after two weeks (FIG. 2B) at 60° C.
Lacripep™ (SEQ ID NO. 1) stability was assessed in PBS at pH 4.5 and 7.0 (FIG. 1) and citrate buffer at pH 6.0 and 6.5 (FIG. 2). The initial concentration of Lacripep™ was 0.001%, and each trial was run at 60° C. The stability was assessed using MALDI TOF mass spectrometry at the initiation of the experiment (week 0, FIGS. 1A and 2A) and after two weeks (week 2, FIGS. 1B and 2B).

Q: What does the source list for “Ac-Lys-Gln-Phe-Ile-Glu-Asn-Gly-Ser-Glu-Phe-Ala-Gln-Lys-Leu-Leu-Lys-Lys-Phe-Ser-NH2 (Ac-KQFIENGSEFAQKLLKKFS-NH2; listed as Homo sapiens) [Lacripep™]”?
A: stability (Lacripep peak, MALDI TOF) (PBS pH 4.5, 0.001% Lacripep): significant degradation; also recorded: a degradation product becomes apparent; also recorded: An additional degradation product is seen; stability (Lacripep peak, MALDI TOF) (PBS pH 7.0, 0.001% Lacripep): significant degradation; also recorded: a degradation product becomes apparent; stability (Lacripep peak, MALDI TOF) (citrate buffer pH 6.0, 0.001% Lacripep): no change in the intensity of the Lacripep™ peak; stability (Lacripep peak, MALDI TOF) (citrate buffer pH 6.5, 0.001% Lacripep): no change in the intensity of the Lacripep™ peak
